The source of these data is patent publication CN112851807A (BLOOD DISEASES HOSPITAL CHINESE ACADEMY OF MEDICAL SCIENCES …, dated 2021).

In general, Kd refers to the equilibrium constant for the complex coming apart. A high value points to lower affinity.

The labels stand for the following.
B1: 抗CD123单克隆抗体8D7 (antibody, IgG1, V domains shown)
VH: EVQLQESGPGLVKPSQSLSLTCTVTGYSITNDYTWNWIRQFPGNKLEWMGYISFSGITSHNPSLNSRISITRDTSKNQFFLQLNSVTTEDTATYYCTRGVDFWGQGTSVTVSA
VL: DIVLTQSPATLSVTPGDSVSLSCWASQSISNSLHWYQQKSHESPRLLIKFASQSISGIPSRFSGSGSGTDFTLSIDSVETEDFGMYFCQQGHTWPHTFGAGTKLELKR
notes: Purified from ascites; also called CGMCC 18849
B2: 抗CD123单克隆抗体12H7 (antibody, IgG1, V domains shown)
VH: QVKLQESGPGLVKPSQSLSLTCTVTGYSITSDFAWNWVRQFPGDKLEWMGYISYSGGTNYHPSLKDRISITRDTSKNQVFLQLNSVTTEDTATYYCARGGMITPYFAYWGQGTLVTVSA
VL: DVVVTQTPLSLPVSFGDQVSISCRSSQSLANSYGNTFLSWYLHKPGQSPQLLIYGISNRFSGVPDRFSGSGSGTDFTLKISTIKPEDLGIYYCLQGTHQPWTFGGGTKLEIKR
notes: Purified from ascites; also called CGMCC 18847
B3: 抗CD123单克隆抗体6E11 (antibody, IgG1, V domains shown)
VH: QVQLQESGPGLVKPSQSLSLTCTVTGYSITNDFAWNWIRQFPGNKLEWMGYISFSGSTSYNPSLKGRISITRDTSKNQFFLQLNSVTTEDTATYSCARGGMITPYFSYWGQGTLVTVSA
VL: DVVVTQTPLSLPVSFGDSVSISCRSSQSLANSYGNTFLSWYLHRPGQSPQLLIYGISNRFSGVPDRFSGSGSGTDFTLKISSIKPEDLGVYYCLQGTHQPWTFGGGTKLEIKR
notes: Purified from ascites; also called CGMCC 18848

For the assay, the target named is T1, 人CD123蛋白 (白细胞介素3受体α链) (human, UniProt P26951 19-378).
T1 construct: whole, on cells; also called IL-3Rα; 3T3/CD123+
T1 sequence (P26951 19-378): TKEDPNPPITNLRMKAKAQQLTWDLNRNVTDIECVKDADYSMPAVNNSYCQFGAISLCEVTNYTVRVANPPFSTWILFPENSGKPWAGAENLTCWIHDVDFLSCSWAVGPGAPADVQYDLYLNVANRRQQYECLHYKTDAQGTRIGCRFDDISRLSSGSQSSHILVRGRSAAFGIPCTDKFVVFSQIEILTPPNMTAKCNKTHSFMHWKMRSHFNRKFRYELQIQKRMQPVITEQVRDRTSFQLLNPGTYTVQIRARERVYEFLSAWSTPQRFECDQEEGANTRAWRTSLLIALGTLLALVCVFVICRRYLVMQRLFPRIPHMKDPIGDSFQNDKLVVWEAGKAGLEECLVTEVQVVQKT
The assay is described as follows: flow cytometry, PE-labelled antibody titrated on CD123-transfected 3T3 cells, fitted in GraphPad Prism 5. On the technique in general: Flow cytometry measures light scatter and fluorescence of single cells or particles in a stream.
For the molecule B1, the Kd is 2.01 nM. B2: the affinity, expressed as Kd, was 2.09 nM. B3 returned a dissociation constant (Kd) of 2.1 nM.
